B1: bJun BiFC construct (domain or fragment, UniProt P05412 257-318, looked up)
chain: RKRMRNRIAASKCRKRKLERIARLEEKVKTLKAQNSELASTANMLREQVAQLKQKVMNHVNS
notes: transcription factor Jun, the construct called bJun

Legend:
[1] = target: VE-cadherin-VC (VE-cadherin ectodomain and transmembrane domain fused to the C-terminal Venus fragment) (human) (UniProt P33151); assay: split reporter (BiFC, NanoBiT); Venus BiFC (VN155 I152L with VC155 A206K) in live HEK293T cells, 0.5 ug of each construct, confocal microscopy 24 h after transfection; mean BiFC intensity per cell or BiFC/DeepRed ratio, compared with control pairings
VE-cadherin-VC (VE-cadherin ectodomain and transmembrane domain fused to the C-terminal Venus fragment) (human), sequence (P33151 26-625): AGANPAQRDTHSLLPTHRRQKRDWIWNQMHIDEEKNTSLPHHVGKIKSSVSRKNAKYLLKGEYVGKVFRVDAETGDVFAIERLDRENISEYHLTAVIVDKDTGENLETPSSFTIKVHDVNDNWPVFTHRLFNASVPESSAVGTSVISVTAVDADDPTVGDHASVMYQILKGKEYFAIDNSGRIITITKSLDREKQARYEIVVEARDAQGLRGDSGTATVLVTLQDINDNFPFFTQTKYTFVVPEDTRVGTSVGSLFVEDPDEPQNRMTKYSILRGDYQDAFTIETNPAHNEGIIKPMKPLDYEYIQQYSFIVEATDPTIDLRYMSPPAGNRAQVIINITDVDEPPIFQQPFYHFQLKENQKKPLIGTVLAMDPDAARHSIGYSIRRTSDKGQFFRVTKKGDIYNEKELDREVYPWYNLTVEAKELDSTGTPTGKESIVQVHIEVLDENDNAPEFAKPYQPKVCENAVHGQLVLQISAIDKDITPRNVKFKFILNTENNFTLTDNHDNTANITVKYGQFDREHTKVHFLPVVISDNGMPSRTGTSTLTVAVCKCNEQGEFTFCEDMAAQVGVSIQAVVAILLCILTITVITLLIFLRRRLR

bFos BiFC construct = target: T1, bFos BiFC construct (UniProt P01100 118-210); assay: split reporter (BiFC, NanoBiT); validation of the quantitative BiFC analysis with bJun/bFos (positive) and bJun/bΔFos (negative); BiFC/DeepRed ratio and mean BiFC intensity; details in S1-S4 Figs; settings: partners not purified
T1 construct: transcription factor Fos, the construct called bFos
T1 sequence (P01100 118-210): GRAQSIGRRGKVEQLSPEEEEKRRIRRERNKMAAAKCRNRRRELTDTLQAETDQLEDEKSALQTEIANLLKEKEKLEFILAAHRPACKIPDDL

Molecule | S/N (median BiFC/DeepRed ratio over that of the negative pairing) [1] | fold mean BiFC value over controls [1] | S/N (median BiFC/DeepRed ratio of the positive pairing over that of the negative pairing bJun/bΔFos) (bFos BiFC construct) | fold difference in mean BiFC fluorescence intensity over bJun/bΔFos (bFos BiFC construct)
VE-PTP-VN (vascular endothelial protein tyrosine phosphatase, ectodomain and transmembrane domain, fused to the N-terminal Venus fragment) (domain or fragment) | 6.5 | 2 to 3 fold |  | 
B1 |  |  | 7.7 | 6 fold
